Measured values: patent publication US20200255529A1 (PIONYR IMMUNOTHERAPEUTICS, published 2020)
Read-outs that look alike come from different tables or passages of the source.

T1: Chimeric cynomolgus TREM1-mIgG Fc (cynomolgus, UniProt A0A2K5VHG8 21-204)
T1 construct: not shown: mouse IgG Fc
T1 sequence: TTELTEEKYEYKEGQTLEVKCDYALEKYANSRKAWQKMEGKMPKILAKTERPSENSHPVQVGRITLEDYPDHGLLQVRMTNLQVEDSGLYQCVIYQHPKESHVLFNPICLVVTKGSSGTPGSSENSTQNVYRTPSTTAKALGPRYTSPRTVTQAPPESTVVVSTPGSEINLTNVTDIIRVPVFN

T2: cynomolgus TREM1 on cells (cynomolgus, UniProt A0A2K5VHG8 21-233)
T2 construct: whole, on cells; Used for HEK293 cells over-expressing cynomolgus TREM1 and for primary cynomolgus monocytes; also called cynoTREM1; Cyno TREM1 cells
T2 sequence: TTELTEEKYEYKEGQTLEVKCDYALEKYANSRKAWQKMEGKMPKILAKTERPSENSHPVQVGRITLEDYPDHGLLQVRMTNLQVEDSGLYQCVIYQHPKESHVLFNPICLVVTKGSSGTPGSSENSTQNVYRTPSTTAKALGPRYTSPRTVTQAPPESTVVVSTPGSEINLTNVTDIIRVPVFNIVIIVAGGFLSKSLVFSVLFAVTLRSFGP

T3: mouse TREM1 on HEK293 cells (mouse, UniProt Q9JKE2 21-230)
T3 construct: also called mTREM1; mouse TREM1 over-expressing cells
T3 sequence: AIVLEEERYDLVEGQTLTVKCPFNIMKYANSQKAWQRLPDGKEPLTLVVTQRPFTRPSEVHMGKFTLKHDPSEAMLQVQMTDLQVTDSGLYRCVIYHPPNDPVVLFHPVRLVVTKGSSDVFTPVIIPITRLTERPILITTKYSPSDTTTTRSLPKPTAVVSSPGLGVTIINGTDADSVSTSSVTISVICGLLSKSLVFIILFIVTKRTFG


Experiments:
[1] = target: T1, Chimeric cynomolgus TREM1-mIgG Fc; experiment: SPR (Biacore T200), avid format: cynomolgus TREM1-mIgG Fc captured, antibody as analyte
Protocol: All data were collected at 25° C. 10 mM HEPES pH 7.4, 150 mM NaCl, 3 mM EDTA, 0.05% (v/V) surfactant P20 was used as mobile buffer and for all dilution of mAbs. Anti-mouse Fc was immobilized on a CM4 biosensor chip (GE Healthcare) using amine coupling chemistry. Chimeric cynomolgus TREM1-mIgG Fc was captured on one flow cell and another flow cell (used as reference surface) was left blank. […] After each cycle, the surface was regenerated by injecting a glycine HCl buffer (10 mM, pH 2.0). BIAevaluation software was used to perform the kinetic evaluation. Kinetic evaluation was through generation of sensorgrams which were fitted with a 1:1 Langmuir binding model.

[2] = target: T2, cynomolgus TREM1 on cells; experiment: flow cytometry on HEK293 cells over-expressing cynomolgus TREM1
[3] = target: T4, hCD16 on NFAT-luciferase reporter Jurkat cells (Promega) (human, UniProt P08637 17-254); experiment: cell-based or functional assay
T4 sequence (P08637 17-254 F176V): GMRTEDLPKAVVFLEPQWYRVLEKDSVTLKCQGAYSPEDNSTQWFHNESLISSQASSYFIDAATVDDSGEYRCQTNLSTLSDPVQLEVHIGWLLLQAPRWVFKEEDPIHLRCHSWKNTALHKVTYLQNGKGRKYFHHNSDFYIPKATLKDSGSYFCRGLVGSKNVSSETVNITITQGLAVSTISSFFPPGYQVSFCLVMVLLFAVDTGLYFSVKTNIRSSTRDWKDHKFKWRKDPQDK

[4] = target: T3, mouse TREM1 on HEK293 cells; experiment: flow cytometry on HEK293 cells over-expressing mouse TREM1, Alexa 647 anti-human Fcγ secondary antibody
Protocol: HEK293 over-expressing cynomolgus or mouse TREM1 in log phase growth were harvested from culture, washed, and plated in 96 well U bottom plates at 1×10⁵ cells/well. […] An Alexa 647-conjugated anti-human Fcγ secondary antibody (Jackson Immunoresearch) diluted at 1:500 was used to detect bound primary antibody. The secondary antibody was incubated with the cells for 30 mins on ice. […] Fluorescence signal from bound antibody was assessed by flow cytometry (ThermoFisher Attune NxT). EC50 values were calculated in Prism Software (Graphpad).

[5] = target: T4, hCD16 on NFAT-luciferase reporter …; experiment: cell-based or functional assay; remark: listed apart in the source
[6] = target: T2, cynomolgus TREM1 on cells; experiment: flow cytometry on HEK293 cells over-expressing cynomolgus TREM1; remark: listed apart in the source
[7] = target: T5, recombinant human His-tagged FcγRI (human, UniProt P12314 16-288); experiment: ELISA on plates coated with 1 ug/ml His-tagged human FcγRI (CD64), detection with HRP-conjugated anti-human F(ab')2
T5 construct: also called hFcγRI; not shown: His tag
T5 sequence (P12314 16-288 limits assumed): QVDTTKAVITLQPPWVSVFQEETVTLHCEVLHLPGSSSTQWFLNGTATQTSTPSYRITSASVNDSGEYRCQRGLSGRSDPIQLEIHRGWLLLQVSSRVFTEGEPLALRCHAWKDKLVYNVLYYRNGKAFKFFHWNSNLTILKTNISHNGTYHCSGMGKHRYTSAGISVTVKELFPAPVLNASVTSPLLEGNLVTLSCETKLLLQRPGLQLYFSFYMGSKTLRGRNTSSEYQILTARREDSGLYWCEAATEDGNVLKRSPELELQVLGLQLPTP
Protocol: 1 ug/ml of the indicated recombinant human His-tagged FcγR proteins (Sino Biologicals) were coated on MaxiSorp plates overnight at 4° c. […] Fc-mediated binding of the antibodies to the coated FcγR proteins was detected with a HRP-conjugated Fab′2 fragment against the Fab′2 portion of human IgG (Jackson Immunoresearch). TMB substrate (ThermoFisher) was used to quantitate the amount of HRP-conjugated secondary reagent bound to primary antibodies and H₃PO₄ was used to stop the reaction. Absorbance at 450 nm was measured using the Spectramax plate reader ([…]).

[8] = target: T2, cynomolgus TREM1 on cells; experiment: flow cytometry on HEK293 cells over-expressing cynomolgus TREM1, experiment 3
Protocol: (§1) HEK293 cells over-expressing cynomolgus TREM1 in log phase growth were harvested from culture, washed, and plated in 96 well U bottom plates at 1×10⁵ cells/well. […] An Alexa 647-conjugated anti-human Fcγ secondary antibody (Jackson Immunoresearch) diluted at 1:500 was used to detect bound primary antibody. The secondary antibody was incubated with the cells for 30 mins on ice. […] Fluorescence signal from bound antibody was assessed by flow cytometry (ThermoFisher Attune NxT). EC50 values were calculated in Prism Software (Graphpad).

[9] = target: T4, hCD16 on NFAT-luciferase reporter …; experiment: cell-based or functional assay; remark: listed apart in the source
[10] = target: T2, cynomolgus TREM1 on cells; experiment: flow cytometry on HEK293 cells over-expressing cynomolgus TREM1, experiment 2
Protocol: as §1

[11] = target: T2, cynomolgus TREM1 on cells; experiment: flow cytometry on HEK293 cells over-expressing cynomolgus TREM1, experiment 1
Protocol: as §1

[12] = target: T2, cynomolgus TREM1 on cells; experiment: flow cytometry on cynomolgus peripheral blood monocytes, experiment 1
Protocol: (§2) Fresh cynomolgus monkey blood (Worldwide Primates Inc) was red cell lysed and washed to enrich PBMC and granulocyte content. Cells were plated and Fc receptors were blocked with a combination of human serum (Jackson Immunoresearch) and a peptide-based FcR block solution (Innovex Biosciences). […] All antibodies used were directly conjugated and data was acquired by flow cytometry (ThermoFisher Attune NxT). EC50 values were calculated in Prism Software (Graphpad).

[13] = target: T1, Chimeric cynomolgus TREM1-mIgG Fc; experiment: SPR (Biacore T200), avid format: cynomolgus TREM1-mIgG Fc captured, antibody as analyte; remark: listed apart in the source
[14] = target: T2, cynomolgus TREM1 on cells; experiment: flow cytometry on cynomolgus peripheral blood monocytes, experiment 2
Protocol: as §2

Row | Binder | Kd [1] | EC50 [2] | hCD16 ADCC assay EC50 [3] | binding result [4] | hCD16 ADCC assay EC50 [5] | EC50 [6] | binding result [7] | EC50 [8] | hCD16 reporter assay EC50 (nM), experiment 1 [9] | hCD16 reporter assay EC50 (nM), experiment 2 [9] | hCD16 reporter assay EC50 (nM), experiment 3 [9] | EC50 [10] | EC50 [11] | EC50 [12] | Kd [13] | EC50 [14]
1 | afucosylated PI-4026-5-M100 (parent) (antibody, human IgG1, kappa, afucosylated Fc glycan (made in FUT8-deficient expi293 cells)) heavy: not shown light: DIQLTQSPSSLSASVGDRVTITCSASSSVSYMHWYQQKPGKAPKLLLYTTSNLASGVPSRFSGSGSGTDYTLTISSLQPEDFATYYCHQWSGYPTFGQGTKLEIKRTVAAPSVFIFPPSDEQLKSGTASVVCLLNNFYPREAKVQWKVDNALQSGNSQESVTEQDSKDSTYSLSSTLTLSKADYEKHKVYACEVTHQGLSSPVTKSFNRGEC | 2.99 nM | 6.61 nM | 0.36 nM |  |  |  |  |  |  |  |  |  |  |  |  | 
2 | PI-4026-5 (antibody, human IgG1, kappa, fucosylated form made in expi293 cells) heavy: not shown light: DIQLTQSPSSLSASVGDRVTITCSASSSVSYMHWYQQKPGKAPKLLLYTTSNLASGVPSRFSGSGSGTDYTLTISSLQPEDFATYYCHQWSGYPTFGQGTKLEIKRTVAAPSVFIFPPSDEQLKSGTASVVCLLNNFYPREAKVQWKVDNALQSGNSQESVTEQDSKDSTYSLSSTLTLSKADYEKHKVYACEVTHQGLSSPVTKSFNRGEC | 1.76 nM |  |  | no binding (tested: 6 ug/ml) | 2.54 nM | 4.61 nM |  |  |  |  |  |  |  |  |  | 
3 | PI-4026-5-M100L (fucosylated) (antibody, human IgG1, kappa, hIgG1, fucosylated; also called fucosylated parent of PI64052) heavy: not shown light: DIQLTQSPSSLSASVGDRVTITCSASSSVSYMHWYQQKPGKAPKLLLYTTSNLASGVPSRFSGSGSGTDYTLTISSLQPEDFATYYCHQWSGYPTFGQGTKLEIKRTVAAPSVFIFPPSDEQLKSGTASVVCLLNNFYPREAKVQWKVDNALQSGNSQESVTEQDSKDSTYSLSSTLTLSKADYEKHKVYACEVTHQGLSSPVTKSFNRGEC | 1.43 nM |  |  |  | 5.86 nM | 4.85 nM | binds |  |  |  |  |  |  |  |  | 
4 | PI64062 (afucosylated PI-4026-5-M100Q) (antibody, human IgG1, kappa, afucosylated Fc glycan (made in FUT8-deficient expi293 cells)) heavy: not shown light: DIQLTQSPSSLSASVGDRVTITCSASSSVSYMHWYQQKPGKAPKLLLYTTSNLASGVPSRFSGSGSGTDYTLTISSLQPEDFATYYCHQWSGYPTFGQGTKLEIKRTVAAPSVFIFPPSDEQLKSGTASVVCLLNNFYPREAKVQWKVDNALQSGNSQESVTEQDSKDSTYSLSSTLTLSKADYEKHKVYACEVTHQGLSSPVTKSFNRGEC | 0.45 nM | 2.07 nM | 0.29 nM |  |  |  | binds | 7.89 nM | 0.08 nM | 0.29 nM | 0.09 nM | 3.25 nM | 2.07 nM | 7.94 nM | 0.45 nM | 7.84 nM
5 | PI64052 (afucosylated PI-4026-5-M100L) (antibody, human IgG1, kappa, afucosylated Fc glycan (made in FUT8-deficient expi293 cells)) heavy: not shown light: DIQLTQSPSSLSASVGDRVTITCSASSSVSYMHWYQQKPGKAPKLLLYTTSNLASGVPSRFSGSGSGTDYTLTISSLQPEDFATYYCHQWSGYPTFGQGTKLEIKRTVAAPSVFIFPPSDEQLKSGTASVVCLLNNFYPREAKVQWKVDNALQSGNSQESVTEQDSKDSTYSLSSTLTLSKADYEKHKVYACEVTHQGLSSPVTKSFNRGEC | 1.41 nM | 3.62 nM | 0.28 nM |  |  |  | binds | 42.8 nM | 0.09 nM | 0.28 nM | 0.11 nM | 4.67 nM | 3.62 nM | 7.84 nM | 1.41 nM | 7.16 nM
6 | PI-4026-5-M100Q (fucosylated) (antibody, human IgG1, kappa, hIgG1, fucosylated; also called fucosylated parent of PI64062) heavy: not shown light: DIQLTQSPSSLSASVGDRVTITCSASSSVSYMHWYQQKPGKAPKLLLYTTSNLASGVPSRFSGSGSGTDYTLTISSLQPEDFATYYCHQWSGYPTFGQGTKLEIKRTVAAPSVFIFPPSDEQLKSGTASVVCLLNNFYPREAKVQWKVDNALQSGNSQESVTEQDSKDSTYSLSSTLTLSKADYEKHKVYACEVTHQGLSSPVTKSFNRGEC | 0.66 nM |  |  |  | 8.6 nM | 6.04 nM | binds |  |  |  |  |  |  |  |  | 
7 | afucosylated PI-4026-5-M100I (antibody, human IgG1, kappa, afucosylated Fc glycan (made in FUT8-deficient expi293 cells)) heavy: not shown light: DIQLTQSPSSLSASVGDRVTITCSASSSVSYMHWYQQKPGKAPKLLLYTTSNLASGVPSRFSGSGSGTDYTLTISSLQPEDFATYYCHQWSGYPTFGQGTKLEIKRTVAAPSVFIFPPSDEQLKSGTASVVCLLNNFYPREAKVQWKVDNALQSGNSQESVTEQDSKDSTYSLSSTLTLSKADYEKHKVYACEVTHQGLSSPVTKSFNRGEC | 13.4 nM | 22 nM | 0.39 nM |  |  |  |  |  |  |  |  |  |  |  |  | 
8 | afucosylated PI-4026-5-M100E (antibody, human IgG1, kappa, afucosylated Fc glycan (made in FUT8-deficient expi293 cells)) heavy: not shown light: DIQLTQSPSSLSASVGDRVTITCSASSSVSYMHWYQQKPGKAPKLLLYTTSNLASGVPSRFSGSGSGTDYTLTISSLQPEDFATYYCHQWSGYPTFGQGTKLEIKRTVAAPSVFIFPPSDEQLKSGTASVVCLLNNFYPREAKVQWKVDNALQSGNSQESVTEQDSKDSTYSLSSTLTLSKADYEKHKVYACEVTHQGLSSPVTKSFNRGEC | 8.66 nM | 56 nM | 0.33 nM |  |  |  |  |  |  |  |  |  |  |  |  | 
